Test: soluble on expression in E. coli; label from the status in PepcDB or PDB records

Sequence | soluble on expression in E. coli
MSRVCVFFLLSFIFSVHADPKVVNLFRVTSLGSLTISVESGGKIFLASGDDNQYLKNIQLTTGTTTITLDKLNDLNDDGSPKFITAAGSVILQTSNNDTTTSRLSGYIYVTTYLQAQDPTFSVYVLKTTQSISKMGMKSTVVVLNTVLRQELIDYDMPRAISYVTKIDHSPNTNLYFQWDIPASNWNDVTNNTFFRNPIELKNGTGPHFKVFFDNIEPLQIGLNYWYITSMGPFNLFLENKYVSDHSYTTTAVNTTGIIVGKSFYADRVVNFQSDTSRSSASGFFDSAYITDDLTIKLQFVGASFSNTLRKESETQNYAWSPAAPVNLTVTSTSTLPGTFYIQYFAFAGDLQPLTSTVATSLMLQTSTTTVASTAVTTSRIITTTKGSSSNCGVHILISLLLSMVFC | not soluble
MSDSNTPNPPGTEERLVQQLDSYFSNTATGNETGEASAPAAPNNAAGTSDQDRPPNLAPILMLSYLNHCMSKKSFTPEDIQKSVWEQKSKKLSQEDWEFCKYFISSKELLLQLAPGKKRKTQAQALIELILKKFPGVGVEMLTRLLDPSESAYIIYDVIEQVKCEPKCDAESIKQEEFMYSQKINKKIRENNKCFKFSMVFERLRNGSSLPEEKPFAPLEFRTITSEYSNIYTQMVKATTYVELMDVMSKLKTTRLSVNELYFSAKHMQNPEKDTQDEFWEAESEKVLELQPLMIDPQLESTSRQRLKILQELALQQKMLKEVDEIISMSFELVTKSLSTGNPHNPADVQSLMINSNAPSIPDQRKNDWMEYYNLNPLGQYPISSHFPRSDRIGPKLPAVIQKISIRYCLSKEIEVIETIDEWKCREFCTYDHNLKDFRRHKCEICEVEVQECDLSLRQTKWCSHIEDQVLLMYNRVNGRLEQYVFSFETKGFKEVYCSCIEVTYRGKNGPEEPVLLTNGSEHVVIKEADPGVVKLQLVGENHVEIPAVPVQQLSAEEIEMQDAYDSSKSESESEHESEQISYNKTFISTLPMFKVRHCPLSRKDVLYVRSNNLGQYEKYDYHPTYHRFEPFKCSKCKDATSEDHLVPKYAEHCPETNEFVIHTENLFTERMEQYIYDSMTQGFRQVYYPQFLYDPSKDHTSNVFVTVNYLSTVITRDKDGRFKKEKFCDNLKKFVAIPEVEVNTFTVQELEKKKNKRRVDSDSDSFEHIEIPDMVSASP | not soluble
MASKTIKIMPVGDSCTEGMGGGEMGSYRTELYRLLTQAGLSIDFVGSQRSGPSSLPDKDHEGHSGWTIPQIASNINNWLNTHNPDVVFLWIGGNDLLLNGNLNATGLSNLIDQIFTVKPNVTLFVADYYPWPEAIKQYNAVIPGIVQQKANAGKKVYFVKLSEIQFDRNTDISWDGLHLSEIGYKKIANIWYKYTIDILRALAGETQLEHHHHHH | soluble
MSLDDSYRIRHIVVKDEEEAREVLKELKGGSSFEAVAAERSTDRYTSPYGGDLGFVTEASDNIPSAYIEEAKTLKEDEWSQEPIKVSNGYAIIQLKEKLKARTFSFDEVKDQIRRQIAMDQLGDKATVKTLWKEADVSWFYGEKSTKEGHHHHHH | soluble
FVVAFLCNWCSYACADLTGMSRIHYPTNIRVIRTMCSARINPEFVLEALKGGADGVLVAGCRMDECHYIHGNFDAKKRMDVLKEIIKEIGLDPKRLRTLWISAAEGERFSNTITEFVKELEEIGPIGSELKREYTATGLEEVAK | not soluble
MAVVMNWNNFSTNWDLKLLSLILAVIVWGGVSGGRTAELELTVPLELRNLPPGFSVASAVPTEASVTVAGPKILLLKLRSERIIIPLDARGVGEGTTLFTGLERRLGLPREATITRLFPATVEVRLIRSKTVQKPLEHHHHHH | not soluble
MRWVSALEKRNFLTSFLHNHRLKHPDARFVLKYLLQHPHLLENVQFTETEQKQGRWLIISTAMAEEEGLVFYRRGQKSTSLAAIMGDLALHPNEPLYLTLHFPGKARNFSYLRLIDHQAFENVRRHERHEKMAKAAEQVLDEALKRHEVSILKMQIDQALDRKDMEWFQMLTEQLKKYEGQS | not soluble
HSSGLVPRGSHMAIIFPGQGAQKVGMAQDLFNNNDQATEILTSAAKTLDFDILETMFTDEEGKLGETENTQPALLTHSSALLAALKNLNPDFTMGHSLGEYSSLVAADVLSFEDAVKIVRKRGQLMAQAFPTGVGSMAAVLGLDFDKVDEICKSLSSDDKIIEPANINCPGQIVVSGHKALIDELVEKGKSLGAKRVMPLAVSGPFHSSLMKVIEEDFSSYINQFEWRDAKFPVVQNVNAQGETDKEVIKSNMVKQLYSPVQFINSTEWLIDQGVDHFIEIGPGKVLSGLIKKINRDVKLTSIQTLEDVKGWNEND | soluble
MGSDKIHHHHHHMKLADIYAHFQEDIFTIERELEEAVQARHDILRKASVHLLKAGGKRIRPVFVLLAGKFGTYDVNVLKHIAVPLELIHMASLVHDDVIDDADLRRGKKTIKSQWDNRIAMYTGDYMFAKAVQTATYFDDPNIHQIISNAINEMCLGEVEQIRDQYNPNQHLRIYFRRIKRKTALLIAVSCQLGALAAKADPAIVQKLYYFGYYVGMSFQITDDVLDFVGTEEQLGKPAGSDLLQGNVTLPALYALHHDMHAKRLIEQVLADRGNNSVHMEEVIAAIVSSGGIDYALSISDLYLKKAMRMLDHLPDDEPKQFLQEIANYIGRRKF | not soluble
MKTLLQTTLKLLVASSLVLGMTASTLMAETKSKFQVAWTIYVGWMPWDYAAQSGILDKWAKKYGIEIEMVQVNDYVESINQYTAGKFDGCVMTNMDALTIPAAGGVNSTALIAGDFSNGNDGIILKGKKRLSEIKGQKVNLMELSVSHYLLARGLESVGLSERDVSVVNTSDADIVAAYSTKEVSALVTWNPQLSEVKSMKGANLVFDSSQIPGEIIDLMVLNTQTLKENPNLGKALTGAWFEVLALMKKGDLTALSAMAKASGTDLAGYKKQLESTKMFYEASEAVKFITSAELPETMKKVSEFSFEHGILGEGASSAAFVGMEFPGGKSFGDPKNLKLRFIDTYVKMAAEGKL | not soluble
MGSDKIHHHHHHMILDVDYVISAANITMQFGAKPLFENISVKFGNGNRYGLIGANGCGKSTFMRILSGEQEPSAGNVSLEPNIRIGKLRQDQFAYEDYSVVDAVIMGHEELWAVKEERDRIYSSGEMSEEDGMRVADLETEFAEMDGYTAESRAGELLLGLGIPVEQHFGLMSALAPGVKIRVLLAQVLFSEPDIMLLDEPTNNLDINTIRWLEGVLAEKQSTMIIISHDRHFLNTVCTHMADIDYGELRVYPGNYDEYMFAATQAREQLMSDNAKKKEKIAELQSFVSRFSANASKAKQATSRQKQMEKIQLDEVKASSRVNPYIRFTQEKKLYRLALETENVRKSFEDEAVLKGLSTSIEVGEKVAIIGANGIGKTTLLKCLMGEYTPDSGSIKWSENAAIGYYAQDHAHWFKQDMTVYEWMYQWKKPGDDEQAIRGVLGRMLFSSDDIQKPVSILSGGEKGRMIFGKLILQRPNILVMDEPTNHLDMESIESLNLALEQFEGTLLFVSHDREFVSTLATRIIEITDKGLRDFAGSYDEYLAQLAAA | not soluble
MASVSFGGLATGLDSNTLISQLMYLERAPERILESKKSTISSQIDVYTQVTNLLNSFKTLAAGMNTATGFMGKTTSVGDSTVATATSSSIASPGSFNLTVNSLAKNERQVVDQGYASADALNFKTGTFTISGVATPITIAEGQNSLQGIASAINASGANVTASIINDGSANPYRLVITGKDTNNYTLNFSGLTGDPASGSAYTTPTITKSGPTYQAGAAASFSVNGIAITKTSNIVTDVIPGVTLTLLKEGGATTTVTVGNDTSGVTKKINDFVGAYNAAMSQINKQSEYNATTKKGGVLSGDSTLRSVKTQLQNVLTTPVAGITGKYSTLADIGITTDRSNGTLTVDATKLADALGSNFNDVVELFTKNGGVSNLDTEKYGVAEQFRKVIDRFTHAYEGPSSTANGIISSRVRGLNDTIKSIDDQIDAMEVRMERKEEALKKQFTAMETLVSSLTTQGNSLISYLYGS | not soluble
MKPALHAIDATLPAPPTYTPAGNECALFEHAWKRRVPLLLKGPTGCGKTRFVAHMAARLGLPLFTVSCHDDLTAADLTGRYLLKGGETVWVDGPLTRAVRQGGICYLDEVVEARKDVAVVLHPLADDRRVLPLERTGEELQAPPHFMLVVSYNPGYQSLLKALKPSTRQRFAAIEFGFLAPEQEIAVVAAESGLPSERVAPLVALAGRLRKLKGHDLEEGVSTRLLVYCASLISEGLPVRDAVLAGLIEPLTDDADVKAALIEVAGVVIGLEHHHHHH | soluble
MTFRYRGPSPKGDQPKAIAGLVEALRDGERFVTLLGATGTGKTVTMAKVIEALGRPALVLAPNKILAAQLAAEFRELFPENAVEYFISYYDYYQPEAYVPGKDLYIEKDASINPEIERLRHSTTRSLLTRRDVIVVASVSAIYGLGDPREYRARNLVVERGKPYPREVLLERLLELGYQRNDIDLSPGRFRAKGEVLEIFPAYETEPIRVELFGDEVERISQVHPVTGERLRELPGFVLFPATHYLSPEGLEEILKEIEKELWERVRYFEERGEVLYAQRLKERTLYDLEMLRVMGTCPGVENYARYFTGKAPGEPPYTLLDYFPEDFLVFLDESHVTVPQLQGMYRGDYARKKTLVDYGFRLPSALDNRPLRFEEFLERVSQVVFVSATPGPFELAHSGRVVEQIIRPTGLLDPLVRVKPTENQILDLMEGIRERAARGERTLVTVLTVRMAEELTSFLVEHGIRARYLHHELDAFERQALIRDLRLGHYDCLVGINLLREGLDIPEVSLVAILDADKEGFLRSERSLIQTIGRAARNARGEVWLYADRVSEAMQRAIEETNRRRALQEAYNLEHGITPETVRKEVRAVIRPEGYEEAPLEADLSGEDLRERIAELELAMWQAAEALDFERAARLRDEIRALEARLQGVRAPEPVPGGRKRKRR | soluble
MSNILFKPTHLPISKPFHALLANILSEHQAKSEVQATSKEVVMNFRDSSYSAEDGGFHPVEIALSQSSDGQWCIEYITDFAYVGNHFPELERCLDFDFQRGDFFTAYHGWNPIVGNRDARELYQLWESNFLAYVATEAFDDISLTSAP | soluble
MGSDKIHHHHHHMVGIILASHGEFAKGILQSGAMIFGDQENVQAVTLMPSEGPDDVKAKMKDAIASFDNQDEVLFLVDLWGGTPFNQANSLFEEHKDKWAIVAGMNLPMVIEAYGARLSMESAHEIAASIISTAKEGVKVKPEELEPEDAGKASQGSAKQSNTGAPGSFEYVLARIDSRLLHGQVATAWTKAMQPTRIIVVSDAVAKDELRKKLIQQAAPPGVKAHVVPINHMIKLAKDDQHFGGQRAMLLFENPEDVLRVVEGGVPLKTINVGSMAHSTGKVQPNKVLAFNQEDIDTFNKLKQSGLTFDVRKVPNDSKGNMDEIIKKAQDELNKQK | not soluble
IMIRTDRYGVITYANEKFCEILKYDKEELIGQRFDILNSHYHAQRFFDIMWETISTGNVWNDEIRNKAKDGSYVWLDTTIIPVLNDEHVPNQYIAIYTDLS | not soluble
MGSDKIHHHHHHAQNGNVLGQVIRLPKSKGNIYQLLGLVTERSGYLFIYDSKIIDNEQTTSIKGGDYTIQEAIYAITGNKNLAIRAIENHLLLYLPESPSAPKSASVTPDSIQTYFSIEGSLQDQYTHEPIAFGSVGIGEAAIGTITNQNGEFRLKLPDSLRLSKVRFSHIGYLPQEIDSRELIDKHTVLSLEPKVISIQEVIVRLTNPKRLLQEMLDKRRSNYSQHPIYLTTFYREGVERKKGLVGLTEAVFKVYKASYHSNALADQVKLLKMRRISNEQEKDTLITKMKSGIYSCLVLDLMKQLPEFLDPSPDSPYTYAHTDITVVDDRLANVISFEQRKSINEPLYRGQIYIDMENNALLRVDFEVNPQYIEQAAGMFVERKSRNLRITPQKVAYTVSYKQWNGTYYINHIRGDLHFKIKKRRQLFNTNILHTWFEMVTCKIDTANVNRFSRIESLPTRTVFSDTHFNYDEGFWGDFNVILPEDKLNEAISRITSKIEETNY | not soluble
